The supplement of paper PMC9170038

System: MS2 coat protein
Assay: apparent KD of MS2 coat protein; designed switch direction (-1 OFF switch, 1 ON switch): -1; higher = weaker reporter binding
Procedure, shortened: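 Transcription of designed RNA switches on Illumina chips was done by stalled E. coli RNA polymerase. SNAP-549-labelled MS2 coat protein was then titrated in doubling steps from 0.7 or 1.5 nM to 3 µM, with steps of 0.8–1.5 h at the lowest and 10–20 min at the highest concentration. The per-design median over clusters of curve-fitted normalised fluorescence is reported as apparent KD.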

[1] = input ligand: microRNA oligo, concentration not stated
[2] = Eterna round: R95, input ligand: FMN 200 uM
[3] = Eterna round: R95, input ligand: microRNA oligo, concentration not stated
[4] = Eterna round: R95, input ligand: none

Row | Sequence | apparent KD of MS2 coat protein (input ligand: FMN 200 uM) | apparent KD of MS2 coat protein [1] | apparent KD of MS2 coat protein (input ligand: none) | apparent KD of MS2 coat protein [2] | apparent KD of MS2 coat protein [3] | apparent KD of MS2 coat protein [4]
1 | ACAGUCACAUGGGUACCAGACAUGAGGAUCACCCAUGUGACAGGUACUUUGUGGCGUCUUGUAUAAUUAAUAAUCAA [Sensor v2, turn off variant (Maaon - vinnie MOD7)] (Eterna round: R96, puzzle: Sensor v2, turn-off variant) | 9.97 nM | 14.3 nM | 13.4 nM | – | – | –
2 | CUGUUUUUCGCAGGAUAUGCUUCUCCUUUAUUAGCAGAAGGGCGUUAAACAUGAGGAUCACCCAUGUAUGGUAAUGACAUUUUC [JR_ExcNG1_Sub061] (Eterna round: R96, puzzle: Exclusion NG 1) | 98.3 nM | 18.2 nM | 24.3 nM | – | – | –
3 | GGCAUCGGAGGAUAUACUUAUGGUGAUACCCGAAGCUUUCUACUUGAGGAUCACCCAAGUAGAAGGCCGAUGCC [jl-ex2.4.81 ViennaUCT mod] (Eterna round: R97, puzzle: Exclusion 2) | 11.7 nM | – | 12.6 nM | – | – | –
4 | UCAAUUUUGCGAGGAUAUCGACCAUUCCUCUUUACAUGAGGAUCACCCAUGUUCUUUUUCUACAACGAGAAGGCGCUCAUAGUU [JR_ExcNG2_Sub063] (Eterna round: R96, puzzle: Exclusion NG 2) | – | 56.2 nM | – | – | – | –
5 | AACCUGAGGCUUUGCUUUAGGUUUACAUGAGGAUCACCCAUGUAGGAUAUGGUAGGCUUUGCUUACCAGAAGGACAUGAAAAUU [Mat - Exclusion NG 3 - Mod of JL - D28] (Eterna round: R96, puzzle: Exclusion NG 3) | 225 nM | 40.4 nM | 44.2 nM | – | – | –
6 | UUUAAGGGAAUUAAGAUCACAUGAGGAUCACCCAUGUAUAUAUAGGAUAUCAGCUCGUUUAGAGCUGAGAAGGAUAUAUACAUA [ExNG3/6-A2] (Eterna round: R96, puzzle: Exclusion NG 3) | 162 nM | 83.8 nM | 155 nM | – | – | –
7 | CGUCUGUGAGGAUAUGGUAUCGUUUACAUGAGGAUCACCCAUGUUACAUGGGACUAGAGACUAGAAGGUACGAACG [EX5 #49] (Eterna round: R97, puzzle: Exclusion 5) | 212 nM | – | 320 nM | – | – | –
8 | GUCCUGGACUAUCACAAGCACAUGAGGAUCACCCAUGUCAUGGGUAGAUCCAUAAAUAAAGAUACUGCUCGUCUUAU [Cac sensor turnoff var1 sub5] (Eterna round: R97, puzzle: Sensor, turn-off variant 1) | 177 nM | – | 303 nM | – | – | –
9 | AGGUGACAUGAGGAUCACCCAUGUAAGGAUAUACGGUUAGUGGAGAGAGGGAAGAGAGGUAGAAGGUACGGAGC [JR_Exclu1_Sub058] (puzzle: Exclusion 1) | – | – | – | 240 nM | 227 nM | 316 nM
10 | UUCAUGUAAGGAUAUGUAGUGAUGACGAAAUUUGUCGUUAAACAGAAGGUACAUGAGGAUCACCCAUGUAGCUA [EX4 B.9] (Eterna round: R97, puzzle: Exclusion 4) | 133 nM | – | 27.4 nM | – | – | –
11 | ACAUGAGGAUCACCCAUGUUCGGCUGGUCCGUCUCGGCUGUCGAGGAUAUAGUUCGGUGUCCGCGCUAGAAGGCGGGAGCUGGC [Aenatbe mod 65] (Eterna round: R96, puzzle: Exclusion NG 3) | 34.1 nM | 29.4 nM | 42.6 nM | – | – | –
12 | GGAUCGAAUGUGAGGAUAUGCUGGUCCUUGGAUCAGCAGAAGGCACAUGAGGAUCACCCAUGUGAUACCGAUCC [Eli bmx4 4.70] (Eterna round: R97, puzzle: Brourd's mod of Exclusion 4) | 255 nM | – | 381 nM | – | – | –
13 | CUCGGACAUGAGGAUCACCCAUGUGAGGAUAUGAUGCGAUCGUCGAAAGACGAUAGCAUCAGAAGGUACAAAUG [Fiskers Ex 1 - 22] (Eterna round: R96, puzzle: Exclusion 1) | 60.2 nM | 36.2 nM | 50.3 nM | – | – | –
14 | GCAGUGCGAGGAUAUACAUGAGGAUCACCCAUGUGAGAAUAAGAAGUGAGGAAGAAAAGUAGAAGGCGCGUUGG [Mat - Exclusion 3 - Mod of Salish D66] (Eterna round: R96, puzzle: Exclusion 3) | 103 nM | 49.5 nM | 52.6 nM | – | – | –
15 | UAAAAGGUAGGAUAUACGAAAAAAAAGGGUAGAAAAAAAACACAUGAGGAUCACCCAUGUAGAAGGACCAAAAG [salish99_ex2_r3_048] (puzzle: Exclusion 2) | – | – | – | 64.3 nM | 29.8 nM | 30.1 nM
16 | UUUAAUUGUCACAUGGGUGACAUGAGGAUCACCCAUGUCACAAGCUUUUUGUUCGUCUUAUAAUUAACCCAUGUGAC [Stov1/12-B1] (Eterna round: R97, puzzle: Sensor, turn-off variant 1) | 13.9 nM | – | 13.1 nM | – | – | –
17 | CUUGUACAUGAGGAUCACCCAUGUUAGGAUAUCUCGCCGUCGGCUUGCCGACGGUAUUAGAGAAGGGACAAGGG [JL Tixe mod 7] (puzzle: Exclusion 1) | – | – | – | – | 18.6 nM | –

Row | Sequence | apparent KD of MS2 coat protein (input ligand: FMN 200 uM) | apparent KD of MS2 coat protein [1] | apparent KD of MS2 coat protein (input ligand: none) | apparent KD of MS2 coat protein [2] | apparent KD of MS2 coat protein [3] | apparent KD of MS2 coat protein [4]
18 | CAACAACGAGGAUAUACAUGAGGAUCACCCAUGUAAGAAAAGACAUAAACCGCCUGGUGUAGAAGGCGUAAAAC [Xeonesar] (Eterna round: R97, puzzle: Exclusion 3) | 25.2 nM | – | 38.2 nM | – | – | –
19 | GGAUAAAACUGAGGAUAUACGUAUCACUAACGAGUAGAAGGCAGACAUGAGGAUCACCCAUGUGAGUUCUCAAUAAGAAACACG [Prohibition 65 - Jieux - Exclusion NG 1] (Eterna round: R96, puzzle: Exclusion NG 1) | 74.9 nM | 43.5 nM | 51.2 nM | – | – | –
20 | CUGGUUGUCGAGGAUAUGCACCAGCUCACUGACGCAGAAGGCGACACAUGAGGAUCACCCAUGUCGGUUCGCGU [salish99_ex6_r004_436] (Eterna round: R97, puzzle: Exclusion 6) | 30.7 nM | – | 28.2 nM | – | – | –
21 | CGGCUGUGAGGAUAUGCCAGGCCGGGCACUCCGCCGCCAGCGCAGAAGGCACAUGAGGAUCACCCAUGUCAAAG [Eternabot (L2) Solution 82] (Eterna round: R97, puzzle: Exclusion 4) | 27.5 nM | – | 23.9 nM | – | – | –
22 | AGCCACAGAGGAUAUACAUACAUCCAGUGGUUAAGAAUACUACAUGAGGAUCACCCAUGUAGAAGGCUGUGGCA [Omei Ex2 BD B11] (Eterna round: R97, puzzle: Exclusion 2) | 108 nM | – | 22.4 nM | – | – | –
23 | AGCAAGCAAUAGGAUAUGCCUGCAAGCUUGCAUGCAGAAGGAUUGACUUGAGGAUCACCCAAGUGGGCUCCUAA [Erbexe] (Eterna round: R97, puzzle: Exclusion 6) | 319 nM | – | 49.5 nM | – | – | –
24 | UUUUACGCAGGAUAUACAUUUUUUUUAUUAUCCUCAUUAUUACAUGAGGAUCACCCAUGUAGAAGGGCGAUUUU [My Design] (puzzle: Exclusion 2) | – | – | – | – | 38.8 nM | –
25 | GUUAACGCAGGAUAUUAGUACAUGUACAUGAGGAUCACCCAUGUUUAUUGGGUCUAAGAAUAAGAAGGGCGAUGAA [JR_Ex5_Sub006] (Eterna round: R97, puzzle: Exclusion 5) | 402 nM | – | 631 nM | – | – | –
26 | UUAAGUAUAGAGGAUAUAUAAUAUUUAUUAACUAUAGAAGGCUAUACAUGAGGAUCACCCAUGUAUAUUGGGAU [JR_Ex6_Sub067] (Eterna round: R97, puzzle: Exclusion 6) | 59.1 nM | – | 41 nM | – | – | –
27 | CAAUACAAGCGAAGAUCCUACAUGAGGAUCACCCAUGUGCUCGUCUUAAAAGGUACUGUGACGAAAGUCACGGUACC [Eli 87 + Mat D67 4] (Eterna round: R97, puzzle: Sensor, turn-off variant 1) | 282 nM | – | 296 nM | – | – | –
28 | UUUGUACAUGAGGAUCACCCAUGUCAGGAUAUGUCAUCGCCGUCUGCCAGACGGCGUCACAGAAGGGACAUGCA [EX1 C.16] (Eterna round: R97, puzzle: Exclusion 1) | 104 nM | – | 34.1 nM | – | – | –
29 | AAUAACAGAGGAUAUACUGUUUUAUGUGUUUGUUGUUUUGAACAUGAGGAUCACCCAUGUAGAAGGCUGAUUAA [JMF 53] (Eterna round: R96, puzzle: Exclusion 2) | 38.4 nM | 31 nM | 38.5 nM | – | – | –
30 | GCGCGGUGAGGAUAUGCGGCGCGCGGGCGCGGGCGGGCGCGGCAGAAGGCACAUGAGGAUCACCCAUGUGGGCG [Prefect Exclusion4] (Eterna round: R97, puzzle: Exclusion 4) | 109 nM | – | 24.2 nM | – | – | –
31 | UCAUAACAUGAGGAUCACCCAUGUGAGGAUAUGAUACUAUGUACUUCGGUACAUAGUAUCAGAAGGCGCAUACU [Brourd's Ex1-3: 11 (nt 68 G)] (puzzle: Exclusion 1) | – | – | – | 115 nM | 55.2 nM | 49.1 nM
32 | CCGCAUAAGCAGGAUAUCGUAUCGGAAACGAUACGAGAAGGGUUUACAUGAGGAUCACCCAUGUUCCUUAGCGG [Mat - Exclusion 6 - Eli Mod - D100] (puzzle: Exclusion 6) | – | – | – | 49.9 nM | 31.5 nM | 32.6 nM
33 | AUGCUCCGUGUAGGAUAUCGCCGUACUAUUCGGCGAGAAGGACAUGAGGAUCACCCAUGUAUGUUAUUAUCACGUGUGGCGCGC [Design 48] (Eterna round: R96, puzzle: Exclusion NG 1) | 57 nM | 14.5 nM | 18.9 nM | – | – | –
